# Where a chain is given by its changes, count along the chain named.
# T1: STR1 (Arabidopsis thaliana, UniProt O64530, C333S)
# T1 construct: untagged (pET28a) or C-terminal His tag (used for Cys variants); E. coli BL21(DE3)
# T1 sequence (O64530 57-379 C333S): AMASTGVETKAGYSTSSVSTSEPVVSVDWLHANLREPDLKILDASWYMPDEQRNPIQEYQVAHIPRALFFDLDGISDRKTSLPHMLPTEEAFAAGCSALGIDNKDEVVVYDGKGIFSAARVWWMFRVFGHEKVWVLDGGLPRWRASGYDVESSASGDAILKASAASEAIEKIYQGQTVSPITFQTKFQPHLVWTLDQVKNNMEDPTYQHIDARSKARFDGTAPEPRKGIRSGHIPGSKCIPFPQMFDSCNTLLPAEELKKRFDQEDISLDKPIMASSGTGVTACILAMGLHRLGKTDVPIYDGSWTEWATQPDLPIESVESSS
# T2: STR1 (Arabidopsis thaliana, UniProt O64530)
# T2 construct: untagged (pET28a) or C-terminal His tag (used for Cys variants); E. coli BL21(DE3)
# T2 sequence (O64530 57-379): T1 sequence (O64530 57-379 C333S) with S277C
# T3: STR2 (Arabidopsis thaliana, UniProt Q24JL3, C298S)
# T3 construct: untagged, pET12a; E. coli BL21(DE3)
# T3 sequence (Q24JL3 1-342 C298S limits assumed): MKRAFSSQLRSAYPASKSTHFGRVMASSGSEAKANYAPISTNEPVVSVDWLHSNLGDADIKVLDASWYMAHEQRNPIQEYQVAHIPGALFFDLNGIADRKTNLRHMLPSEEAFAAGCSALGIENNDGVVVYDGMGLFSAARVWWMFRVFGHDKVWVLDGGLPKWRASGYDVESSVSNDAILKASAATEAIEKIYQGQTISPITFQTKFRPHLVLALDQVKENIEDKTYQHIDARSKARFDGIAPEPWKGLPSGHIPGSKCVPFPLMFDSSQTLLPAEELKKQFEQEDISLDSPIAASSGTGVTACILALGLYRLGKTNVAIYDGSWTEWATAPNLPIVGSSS
# T4: STR2 (Arabidopsis thaliana, UniProt Q24JL3)
# T4 construct: untagged, pET12a; E. coli BL21(DE3)
# T4 sequence (Q24JL3 1-342 limits assumed): T3 sequence (Q24JL3 1-342 C298S limits assumed) with S298C
# B1: STR1 (Arabidopsis thaliana) (protein)
# chain: T1 sequence (O64530 57-379 C333S) with S277C
# notes: untagged (pET28a) or C-terminal His tag (used for Cys variants); E. coli BL21(DE3)
# B2: STR2 (Arabidopsis thaliana) (protein)
# chain: T3 sequence (Q24JL3 1-342 C298S limits assumed) with S298C
# notes: untagged, pET12a; E. coli BL21(DE3)
# Tests used:
# [1] = target: T1, STR1; experiment: intrinsic tryptophan fluorescence quenching; format: binding; conditions: 2 μM protein, 100-fold excess 3-MP, pH 8.0; catalytic Cys variant
# [2] = target: T2, STR1; experiment: intrinsic tryptophan fluorescence quenching; format: binding
# [3] = target: T3, STR2; experiment: intrinsic tryptophan fluorescence quenching; format: binding; conditions: 2 μM protein, 100-fold excess 3-MP, pH 8.0; catalytic Cys variant
# [4] = target: T4, STR2; experiment: intrinsic tryptophan fluorescence quenching; format: binding
# [5] = target: Cys333 (UniProt position 333, PIMASCGTGVT); experiment: chemical modification (H2O2 inactivation) with activity readout; conditions: Not stated for the pH pre-incubation. The activity assay was at 25 °C.; Not stated (100 mM buffers); 100 mM sodium citrate, MES, phosphate or borate buffers for the pre-incubation. Activity assay in 30 mM Tris-HCl pH 8.0.; Reduced enzyme (DTT-reduced and desalted), 2 uM, no substrate during the 3 min pre-incubation
# [6] = target: Cys298 (UniProt position 298, PIAASCGTGVT); experiment: as above; conditions: Not stated for the pH pre-incubation. The activity assay was at 25 °C.; Not stated (100 mM buffers); 100 mM sodium citrate, MES, phosphate or borate buffers for the pre-incubation. Activity assay in 30 mM Tris-HCl pH 8.0.; Reduced enzyme (DTT-reduced and desalted), 2 uM, no substrate during the 3 min pre-incubation
# [7] = test system: Cys; conditions: cited from earlier work
# [8] = substrate: N[C@@H](CS)C(=O)O; experiment: H2S release, methylene blue assay; format: biochemical, Arabidopsis thaliana; conditions: apparent, sulfur acceptor, 250 μM 3-MP, pH 8.0, 25 °C
# Description: (§1) H2S release, methylene blue assay on STR1
# [9] = substrate: O=C(O)C(=O)CS; experiment: H2S release, methylene blue assay; format: biochemical, Arabidopsis thaliana; conditions: apparent, sulfur donor, acceptor 30 μM TRXo1 with NADPH and NTRB, pH 8.0, 25 °C
# Description: as §1
# [10] = substrate: N[C@@H](CS)C(=O)O; experiment: H2S release, methylene blue assay; format: biochemical, Arabidopsis thaliana; conditions: apparent, sulfur acceptor, 250 μM 3-MP, pH 8.0, 25 °C; remark: listed apart in the source
# Description: (§2) H2S release, methylene blue assay on STR2
# [11] = substrate: O=C(O)C(=O)CS; experiment: H2S release, methylene blue assay; format: biochemical, Arabidopsis thaliana; conditions: apparent, sulfur donor, acceptor 10 μM TRXh1 with NADPH and NTRB, pH 8.0, 25 °C
# Description: as §2
molecule,measurement,setting,value
O=C(O)C(=O)CS [3-MP],intrinsic tryptophan fluorescence quenching,[1],intrinsic fluorescence of both variants also decreased after addition of 3-MP
same,Kd,[2],1300 ± 900 nM
same,intrinsic tryptophan fluorescence quenching,[3],intrinsic fluorescence of both variants also decreased after addition of 3-MP
same,Kd,[4],700 ± 300 nM
"Sulfurtransferase 1 (STR1), mitochondrial 3-mercaptopyruvate sulfurtransferase (Arabidopsis thaliana)",pKa,[5],3.8 ± 0.1
"Sulfurtransferase 2 (STR2), cytosolic 3-mercaptopyruvate sulfurtransferase (Arabidopsis thaliana)",pKa,[6],4.0 ± 0.1
3-mercaptopyruvate sulfurtransferase (human MST) (Homo sapiens),pKa,[7],5.2 ± 0.1
B1,Km,[8],2200 ± 400 µM
same,kcat,[8],3.9 s⁻¹
same,kcat/Km,[8],1700 M⁻¹ s⁻¹
same,Km,[9],286 ± 5 µM
same,kcat,[9],13.5 s⁻¹
same,kcat/Km,[9],47000 M⁻¹ s⁻¹
B2,Km,[10],1300 ± 70 µM
same,kcat,[10],1.5 s⁻¹
same,Km,[11],377 ± 15 µM
same,kcat,[11],9.7 s⁻¹
